In patent US20220153803:

Sequence of phospho-Thr^5-glucagon (chain, as listed by the source): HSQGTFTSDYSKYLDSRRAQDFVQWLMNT

Substance: bovine alkaline phosphatase
- Dephosphorylation T50 (mins.) pH 7.4 (phospho-Ser^8-glucagon): 94.9 min
- Dephosphorylation T50 (mins.) pH 7.4 (phospho-Thr^5-glucagon): 85.9 min
